{"source": "paper PMC7729032", "about": "“Interaction interface in the C-terminal parts of centriole proteins Sas6 and Ana2” (Open Biology, 2020)", "biological_target": "T1, MBP-Sas6 wild-type (Drosophila, UniProt Q9VAC8 1-472)", "T1 construct": "Sas6, Drosophila, wild type; MBP from destination vector pKM596 (Gateway); No cleavage of MBP is described; also called Sas6-wt; source: E. coli Rosetta(DE3); in lysate (pull-down); purified on amylose resin and SEC (SEC, HDX-MS)", "T1 sequence (looked up)": "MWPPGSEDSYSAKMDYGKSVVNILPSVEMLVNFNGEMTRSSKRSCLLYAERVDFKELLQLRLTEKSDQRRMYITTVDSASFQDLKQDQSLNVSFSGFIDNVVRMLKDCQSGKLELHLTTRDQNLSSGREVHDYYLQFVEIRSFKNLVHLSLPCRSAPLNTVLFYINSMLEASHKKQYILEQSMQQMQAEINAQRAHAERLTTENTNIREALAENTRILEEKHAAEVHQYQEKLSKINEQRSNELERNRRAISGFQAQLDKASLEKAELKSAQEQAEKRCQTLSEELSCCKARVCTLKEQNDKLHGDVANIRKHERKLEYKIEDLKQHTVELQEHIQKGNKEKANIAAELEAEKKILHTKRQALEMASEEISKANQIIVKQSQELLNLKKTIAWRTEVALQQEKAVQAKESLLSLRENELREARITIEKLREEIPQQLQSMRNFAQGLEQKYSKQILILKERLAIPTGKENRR", "assay": "SEC; MBP-Ana2-4D mixed with MBP-Sas6, at least 1 h on ice, Superdex 200 10/300; 20 mM Tris–HCl pH 7.5, 150 mM NaCl, 1 mM DTT, 4°C", "settings": "both partners purified", "data": [{"binder": "MBP-Ana2-4D (natural protein, Drosophila, UniProt Q9XZ31 1-420, looked up, Ana2, Drosophila; STAN motif serines 318, 365, 370 and 373 substituted by aspartic acid; MBP from destination vector pKM596; As prey against Gorab bait the MBP tag follows from the general methods of the pull-down; also called Ana2-4D-FL; source: E. coli Rosetta(DE3); purified on amylose resin and SEC (SEC, HDX-MS); in lysate (pull-down prey)) MFVPETEDMLPRLAPRPSAAVPMGHTNEIIGPTVPEVSILFGQPPQDPQMQPQQPNHAHQESSPRAAPTFASWKKQMLPRVNFSPILATELGPRTAPSSNSPCSSKEYQVMPRDRNYASDAQQTTNHMNCNAGGYNAEPKQQAYQSRRLSSSSNADVLTICAGTQTDPFNPSPPRKSLPQVVYSDIDVSNLANKSDLAALVSLVESVRHEQQQLRNLCEMILEQQQRAKPEAISKASSTTGTQCDILTTNQAGRRLSPIMQDYIAEEEEPLPPPQARVIPQFPSPRPHPPIAQSTGYRANTPQAKRIPQLAKPNTEKDMVMNELALKYLRQPVDELMKDMRLGASPKSPNPEPLRPIDNIGHAQDPNDIDNADYKYLKKYRLLPEEQLEPVCPQSPMAATAPSPHIQLDLENIRNQPKLL", "values": [{"measurement": "binding result", "value": "binds"}]}]}
